Holding throughout (format): binding
Experiment [1] is described as follows: Urea titration of emission intensity spectra (Nanodrop3300) with ratiometric analysis, singly labeled conjugates. Set-up: key: m, monochromatic; d, dichromatic (i.e. spectral shape change). The following applies: urea response. An excerpt:
(§1) Determination of emission intensity spectra.
(§2) Ratiometric analysis of urea binding. […] 2
(§3) For a single urea-binding site, the fractional saturation is given by
(§4) [formula] where [L] is the ligand (urea) concentration and Kd the dissociation constant, ^trueKd for ytrue.
(§5) [formula] where ^appIλ2 and ^satIλ2 are the emission intensities of the monochromatic signal at wavelength λ2 of the ligand-free and ligand-bound protein, respectively.

Assay in experiment [2]: as above
Excerpt: as §1, §2, §3, §4, §5

Experiment [3] can be described thus: Temperature- and urea-dependent fluorescence landscapes of fluorescent conjugates (Roche LightCycler). Set-up: key: y, yes; n, no. The settings on record: Acrylodan conjugate; fluorescent response to urea. The method, boiled down: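 Acrylodan or Badan was attached to single-cysteine csUBP7 mutants and fluorescence was recorded over 0–4.8 M urea in 20 mM KCl, 20 mM MOPS (pH 7.4), with temperature stepped by 1K. Urea Kd came from ratiometric single-site fits, and Kd values across temperatures were fit to the Gibbs-Helmholtz equation.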

A short description of experiment [4]: Urea titration of emission intensity spectra (Nanodrop3300) with ratiometric analysis, singly labeled conjugates. The arrangement: key: m, monochromatic; d, dichromatic (i.e. spectral shape changes); 0, no change. The settings on record: urea response.
Excerpt: as §1, §2, §3, §4, §5

Where [5] appears, read: ctUBP6 Acrylodan conjugate, urea, nb = no binding, read-out: ^appKd.
Where [6] appears, read: ctUBP6 Badan conjugate, urea, ^d = noisy data and or bad fit, read-out: ^appKd.
Where [7] appears, read: ctUBP6 Badan conjugate, urea, ^d = noisy data and or bad fit, read-out: ^trueKd.
Where [8] appears, read: ctUBP6 Acrylodan conjugate, urea, nb = no binding, read-out: ^trueKd.
The mark [9] stands for this setting: ctUBP6 Acrylodan conjugate, urea, nb = no binding.

Where two headings read alike, the source gives them in different places.

B1: ctUBP6 T96C: ctUBP6 96C cysteine mutant (SEQ ID NO: 50), tested as Acrylodan and Badan conjugates (conjugate)
chain: MVEEPVDNKPGTDTSAEDTIKVGILHSLSGTMAISEVSLKDAELMAIEEINQAGGLLGKKIEPVIEDGASDWPTFAEKAKKLLQNDKVATVFGCWCSASRKAVLPVFEENNGLLWYPVQYEGMESSPNIFYTGAAPNQQIVPAVEWLLENKGKRFFLLGSDYVFPRTANKIIKAQLSAIGGELIAEEYTPLGHTDYSTIVNKIKTAKPDVVFNTLNGDSNVAFFKQLKDAGITSEDITVCSVSVAEEEIRGIGAENIKGHLVSWNYYQTTDTPENKEFVEKYKSKYGSDRVTDDPIEAAYIAVHLWAEAVKKAGSFEVEKVKEAAKGLEFKAPEGLVKIEGENQHLWKPVRIGEVQEDGLIKEIWSTSEAVRPDPYLKTYDWAKGLSDGGSHHHHHH
modifications: Acrylodan or Badan conjugate; ctUBP6_96C (96C substitution mutant with signal peptide replaced with M and a GGSHHHHHH at C-terminus)
For the molecule B1, the Shape entry in experiment [1] (ctUBP6 Acrylodan conjugate) and in experiment [1] (ctUBP6 Badan conjugate) was “d” each time. Further, the Kd in experiment [2] (setting [5]) came out at 0.52 mM; in experiment [2] (setting [6]) it was 0.62 mM; in experiment [2] (setting [7]), 0.5 mM. Also, the Response result in experiment [3] is on record as “n”.

B2: ctUBP6 S97C: ctUBP6 97C cysteine mutant (SEQ ID NO: 51), tested as Acrylodan and Badan conjugates (conjugate)
chain: MVEEPVDNKPGTDTSAEDTIKVGILHSLSGTMAISEVSLKDAELMAIEEINQAGGLLGKKIEPVIEDGASDWPTFAEKAKKLLQNDKVATVFGCWTCASRKAVLPVFEENNGLLWYPVQYEGMESSPNIFYTGAAPNQQIVPAVEWLLENKGKRFFLLGSDYVFPRTANKIIKAQLSAIGGELIAEEYTPLGHTDYSTIVNKIKTAKPDVVFNTLNGDSNVAFFKQLKDAGITSEDITVCSVSVAEEEIRGIGAENIKGHLVSWNYYQTTDTPENKEFVEKYKSKYGSDRVTDDPIEAAYIAVHLWAEAVKKAGSFEVEKVKEAAKGLEFKAPEGLVKIEGENQHLWKPVRIGEVQEDGLIKEIWSTSEAVRPDPYLKTYDWAKGLSDGGSHHHHHH
modifications: Acrylodan or Badan conjugate; ctUBP6_97C (97C substitution mutant with signal peptide replaced with M and a GGSHHHHHH at C-terminus)
For the molecule B2, the Shape result in experiment [4] (ctUBP6 Acrylodan conjugate) is on record as “m”; in experiment [2] (ctUBP6 Badan conjugate, urea response) it was “m/d”. Moreover, the Kd in experiment [2] (setting [5]) is 79 mM; in experiment [2] (setting [8]) it was 84 mM; in experiment [2] (setting [6]) it was 69 mM; in experiment [2] (setting [7]) it was 95 mM. In addition, in experiment [3], the Response entry is “n”.

B3: ctUBP6 L191C: ctUBP6 191C cysteine mutant (SEQ ID NO: 54), tested as Acrylodan and Badan conjugates (conjugate)
chain: MVEEPVDNKPGTDTSAEDTIKVGILHSLSGTMAISEVSLKDAELMAIEEINQAGGLLGKKIEPVIEDGASDWPTFAEKAKKLLQNDKVATVFGCWTSASRKAVLPVFEENNGLLWYPVQYEGMESSPNIFYTGAAPNQQIVPAVEWLLENKGKRFFLLGSDYVFPRTANKIIKAQLSAIGGELIAEEYTPCGHTDYSTIVNKIKTAKPDVVFNTLNGDSNVAFFKQLKDAGITSEDITVCSVSVAEEEIRGIGAENIKGHLVSWNYYQTTDTPENKEFVEKYKSKYGSDRVTDDPIEAAYIAVHLWAEAVKKAGSFEVEKVKEAAKGLEFKAPEGLVKIEGENQHLWKPVRIGEVQEDGLIKEIWSTSEAVRPDPYLKTYDWAKGLSDGGSHHHHHH
modifications: Acrylodan or Badan conjugate; ctUBP6_191C (191C substitution mutant with signal peptide replaced with M and a GGSHHHHHH at C-terminus)
With B3, the Shape result in experiment [4] (ctUBP6 Acrylodan conjugate) and in experiment [4] (ctUBP6 Badan conjugate) was “m” each time. Further, the Kd in experiment [2] (setting [5]) stood at 0.15 mM; in experiment [2] (setting [8]), 0.11 mM; in experiment [2] (setting [6]) it was 0.31 mM; in experiment [2] (setting [7]), 0.34 mM. Moreover, the Response entry in experiment [3] is “y”.

B4: ctUBP6 F164C: ctUBP6 164C cysteine mutant (SEQ ID NO: 53), tested as Acrylodan and Badan conjugates (conjugate)
chain: MVEEPVDNKPGTDTSAEDTIKVGILHSLSGTMAISEVSLKDAELMAIEEINQAGGLLGKKIEPVIEDGASDWPTFAEKAKKLLQNDKVATVFGCWTSASRKAVLPVFEENNGLLWYPVQYEGMESSPNIFYTGAAPNQQIVPAVEWLLENKGKRFFLLGSDYVCPRTANKIIKAQLSAIGGELIAEEYTPLGHTDYSTIVNKIKTAKPDVVFNTLNGDSNVAFFKQLKDAGITSEDITVCSVSVAEEEIRGIGAENIKGHLVSWNYYQTTDTPENKEFVEKYKSKYGSDRVTDDPIEAAYIAVHLWAEAVKKAGSFEVEKVKEAAKGLEFKAPEGLVKIEGENQHLWKPVRIGEVQEDGLIKEIWSTSEAVRPDPYLKTYDWAKGLSDGGSHHHHHH
modifications: Acrylodan or Badan conjugate; ctUBP6_164C (164C substitution mutant with signal peptide replaced with M and a GGSHHHHHH at C-terminus)
For the molecule B4, the Shape result in experiment [1] (ctUBP6 Acrylodan conjugate) and in experiment [1] (ctUBP6 Badan conjugate) was “d” throughout. Further, the Kd is 23 mM in experiment [2] (setting [5]), 22 mM in experiment [2] (setting [8]), 9.4 mM in experiment [2] (setting [6]) and 11 mM in experiment [2] (setting [7]). Moreover, the Response result in experiment [3] is on record as “y”.

B5: ctUBP6 A98C: ctUBP6 98C cysteine mutant (SEQ ID NO: 52), tested as Acrylodan and Badan conjugates (conjugate)
chain: MVEEPVDNKPGTDTSAEDTIKVGILHSLSGTMAISEVSLKDAELMAIEEINQAGGLLGKKIEPVIEDGASDWPTFAEKAKKLLQNDKVATVFGCWTSCSRKAVLPVFEENNGLLWYPVQYEGMESSPNIFYTGAAPNQQIVPAVEWLLENKGKRFFLLGSDYVFPRTANKIIKAQLSAIGGELIAEEYTPLGHTDYSTIVNKIKTAKPDVVFNTLNGDSNVAFFKQLKDAGITSEDITVCSVSVAEEEIRGIGAENIKGHLVSWNYYQTTDTPENKEFVEKYKSKYGSDRVTDDPIEAAYIAVHLWAEAVKKAGSFEVEKVKEAAKGLEFKAPEGLVKIEGENQHLWKPVRIGEVQEDGLIKEIWSTSEAVRPDPYLKTYDWAKGLSDGGSHHHHHH
modifications: Acrylodan or Badan conjugate; ctUBP6_98C (98C substitution mutant with signal peptide replaced with M and a GGSHHHHHH at C-terminus)
B5: the Shape result in experiment [4] (ctUBP6 Acrylodan conjugate) and in experiment [4] (ctUBP6 Badan conjugate) was “m” throughout. The “^appKd” value in experiment [2] (setting [9]) is listed as “nb”. Also, in experiment [2] (setting [9]), the “^trueKd” value is recorded as “nb”. Further, the Response entry in experiment [3] is listed as “y”.

B6: ctUBP6 W95C: ctUBP6 95C cysteine mutant (SEQ ID NO: 49), tested as Acrylodan and Badan conjugates (conjugate)
chain: MVEEPVDNKPGTDTSAEDTIKVGILHSLSGTMAISEVSLKDAELMAIEEINQAGGLLGKKIEPVIEDGASDWPTFAEKAKKLLQNDKVATVFGCCTSASRKAVLPVFEENNGLLWYPVQYEGMESSPNIFYTGAAPNQQIVPAVEWLLENKGKRFFLLGSDYVFPRTANKIIKAQLSAIGGELIAEEYTPLGHTDYSTIVNKIKTAKPDVVFNTLNGDSNVAFFKQLKDAGITSEDITVCSVSVAEEEIRGIGAENIKGHLVSWNYYQTTDTPENKEFVEKYKSKYGSDRVTDDPIEAAYIAVHLWAEAVKKAGSFEVEKVKEAAKGLEFKAPEGLVKIEGENQHLWKPVRIGEVQEDGLIKEIWSTSEAVRPDPYLKTYDWAKGLSDGGSHHHHHH
modifications: Acrylodan or Badan conjugate; ctUBP6_95C (95C substitution mutant with signal peptide replaced with M and a GGSHHHHHH at C-terminus)
As for B6, the Shape entry in experiment [4] (ctUBP6 Acrylodan conjugate) and in experiment [4] (ctUBP6 Badan conjugate) was “m” throughout. The Response result in experiment [3] is on record as “y”.

The values are drawn from patent US11906524B2, “Urea biosensors and uses thereof” (Duke University, priority 2015, dated 2024).
